Measured values from PMC3722562.

Columns and labels:
HER2-GST fusion (human) = HER2-GST fusion (human) (UniProt P04626); test: not stated (cited); settings: 2'-fluoro pyrimidines (general statement); Cell assays mostly in DPBS at 37 C (4 C for surface binding), washes DPBS, 0.5 M NaCl +/- 0.2 N acetic acid or trypsin; Qdot flow after 10% FBS/DPBS block …; cited from earlier work
[1] = target: PSMA (prostate specific membrane antigen) (human) (UniProt Q04609); test: not stated (cited); settings: 2'-fluoro pyrimidines; Cell assays mostly in DPBS at 37 C (4 C for surface binding), washes DPBS, 0.5 M NaCl +/- 0.2 N acetic acid or trypsin; Qdot flow after 10% FBS/DPBS block …; cited from earlier work
Sequence of PSMA (prostate specific membrane antigen) (human) (Q04609 whole entry): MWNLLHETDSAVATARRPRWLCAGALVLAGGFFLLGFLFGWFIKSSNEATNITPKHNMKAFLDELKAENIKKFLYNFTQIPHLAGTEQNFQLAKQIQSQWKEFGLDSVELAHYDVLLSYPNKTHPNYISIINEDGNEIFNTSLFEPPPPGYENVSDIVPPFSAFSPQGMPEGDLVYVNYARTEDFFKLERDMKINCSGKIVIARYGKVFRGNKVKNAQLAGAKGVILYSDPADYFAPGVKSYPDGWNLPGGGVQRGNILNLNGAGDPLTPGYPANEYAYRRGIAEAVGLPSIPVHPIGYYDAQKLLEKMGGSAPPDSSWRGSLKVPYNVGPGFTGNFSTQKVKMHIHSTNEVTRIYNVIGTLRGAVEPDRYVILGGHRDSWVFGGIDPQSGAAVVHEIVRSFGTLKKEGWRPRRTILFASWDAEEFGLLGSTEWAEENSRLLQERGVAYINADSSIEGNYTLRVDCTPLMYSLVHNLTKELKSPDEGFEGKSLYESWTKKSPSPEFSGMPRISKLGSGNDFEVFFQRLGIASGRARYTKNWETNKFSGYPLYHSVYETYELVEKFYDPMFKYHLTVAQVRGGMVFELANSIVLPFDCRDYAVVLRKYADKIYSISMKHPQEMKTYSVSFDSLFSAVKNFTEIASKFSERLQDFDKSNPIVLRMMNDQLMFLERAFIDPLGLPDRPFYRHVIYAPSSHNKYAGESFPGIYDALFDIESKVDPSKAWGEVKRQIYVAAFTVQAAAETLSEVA

[2] = target: PSMA on PC3(PSMA+) cells (human?) (UniProt Q04609); test: NIR cell uptake (QUSIM); settings: 10 nM, 15 min, 37 C, trypsin wash, 2'-fluoro pyrimidines, Cell assays mostly in DPBS at 37 C (4 C for surface binding), washes DPBS, 0.5 M NaCl +/- 0.2 N acetic acid or trypsin, Qdot flow after 10% FBS/DPBS block …
Sequence of PSMA on PC3(PSMA+) cells (human?) (Q04609 whole entry): as above

HER2 (rat) (rat) = HER2 (rat) (rat) (UniProt P06494); test: not stated (cited); settings: 2'-fluoro pyrimidines; Cell assays mostly in DPBS at 37 C (4 C for surface binding), washes DPBS, 0.5 M NaCl +/- 0.2 N acetic acid or trypsin; Qdot flow after 10% FBS/DPBS block …; cited from earlier work
Sequence of HER2 (rat) (rat) (P06494 whole entry): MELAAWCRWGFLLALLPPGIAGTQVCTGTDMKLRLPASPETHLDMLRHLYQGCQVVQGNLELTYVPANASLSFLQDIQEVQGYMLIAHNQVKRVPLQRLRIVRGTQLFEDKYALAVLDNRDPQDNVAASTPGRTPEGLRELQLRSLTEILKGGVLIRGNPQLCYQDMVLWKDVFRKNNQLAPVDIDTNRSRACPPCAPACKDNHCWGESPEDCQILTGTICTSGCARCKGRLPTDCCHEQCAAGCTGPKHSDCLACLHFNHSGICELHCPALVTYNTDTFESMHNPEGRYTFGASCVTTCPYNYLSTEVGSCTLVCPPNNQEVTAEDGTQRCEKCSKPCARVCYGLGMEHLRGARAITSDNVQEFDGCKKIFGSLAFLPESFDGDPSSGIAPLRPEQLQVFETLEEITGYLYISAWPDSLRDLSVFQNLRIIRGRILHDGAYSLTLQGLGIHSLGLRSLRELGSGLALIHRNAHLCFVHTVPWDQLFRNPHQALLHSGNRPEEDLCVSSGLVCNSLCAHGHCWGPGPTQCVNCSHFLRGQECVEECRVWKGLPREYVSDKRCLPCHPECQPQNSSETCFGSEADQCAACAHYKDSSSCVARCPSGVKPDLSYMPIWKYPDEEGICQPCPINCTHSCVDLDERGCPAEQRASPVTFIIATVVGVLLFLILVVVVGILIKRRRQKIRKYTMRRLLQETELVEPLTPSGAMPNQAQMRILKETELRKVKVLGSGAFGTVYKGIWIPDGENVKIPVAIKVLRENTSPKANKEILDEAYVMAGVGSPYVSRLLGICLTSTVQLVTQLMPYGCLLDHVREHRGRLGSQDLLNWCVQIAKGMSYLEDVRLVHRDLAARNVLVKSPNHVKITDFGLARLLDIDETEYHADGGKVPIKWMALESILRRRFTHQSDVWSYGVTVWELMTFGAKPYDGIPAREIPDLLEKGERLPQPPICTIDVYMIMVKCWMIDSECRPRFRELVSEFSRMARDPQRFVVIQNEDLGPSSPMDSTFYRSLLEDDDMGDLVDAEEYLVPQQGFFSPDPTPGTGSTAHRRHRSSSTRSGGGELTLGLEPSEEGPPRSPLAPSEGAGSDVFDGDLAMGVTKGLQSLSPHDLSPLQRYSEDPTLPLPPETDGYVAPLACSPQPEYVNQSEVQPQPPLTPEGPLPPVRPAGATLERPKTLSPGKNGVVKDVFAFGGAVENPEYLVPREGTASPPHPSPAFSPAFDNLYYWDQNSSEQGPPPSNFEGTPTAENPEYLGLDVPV

TrkB (mouse) (mouse) = TrkB (mouse) (mouse) (UniProt P15209); test: not stated (cited); settings: 2'-fluoro pyrimidines; Cell assays mostly in DPBS at 37 C (4 C for surface binding), washes DPBS, 0.5 M NaCl +/- 0.2 N acetic acid or trypsin; Qdot flow after 10% FBS/DPBS block …; cited from earlier work
Sequence of TrkB (mouse) (mouse) (P15209 whole entry): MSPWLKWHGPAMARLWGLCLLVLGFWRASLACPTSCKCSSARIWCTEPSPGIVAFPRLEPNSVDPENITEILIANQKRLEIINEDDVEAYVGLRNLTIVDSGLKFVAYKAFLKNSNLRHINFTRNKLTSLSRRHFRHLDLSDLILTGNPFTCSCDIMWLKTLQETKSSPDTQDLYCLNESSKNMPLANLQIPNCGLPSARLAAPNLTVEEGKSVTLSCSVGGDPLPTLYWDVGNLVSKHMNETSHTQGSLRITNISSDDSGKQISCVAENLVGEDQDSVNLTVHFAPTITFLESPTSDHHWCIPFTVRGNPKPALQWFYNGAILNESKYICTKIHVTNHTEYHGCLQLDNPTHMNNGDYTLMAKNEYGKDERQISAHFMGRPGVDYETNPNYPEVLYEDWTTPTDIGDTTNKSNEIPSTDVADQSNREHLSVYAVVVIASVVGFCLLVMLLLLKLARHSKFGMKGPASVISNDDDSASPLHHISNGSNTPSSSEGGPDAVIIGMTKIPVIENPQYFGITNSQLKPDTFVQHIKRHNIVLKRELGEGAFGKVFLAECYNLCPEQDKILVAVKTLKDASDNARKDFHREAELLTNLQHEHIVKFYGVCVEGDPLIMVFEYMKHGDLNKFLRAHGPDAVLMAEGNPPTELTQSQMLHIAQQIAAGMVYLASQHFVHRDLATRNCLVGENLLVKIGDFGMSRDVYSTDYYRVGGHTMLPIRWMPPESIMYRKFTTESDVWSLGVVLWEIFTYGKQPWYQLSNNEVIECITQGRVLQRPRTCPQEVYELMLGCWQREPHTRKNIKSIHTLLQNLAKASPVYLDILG

Q: For “AGCCGCGAGGGGAGGGAUAGGGUAGGGCGCGGCU [hHER2-apt]”, which Kd (HER2-GST fusion (human)) is on record?
A: The Kd was 3.5 nM.

Q: Which Kd [1] does the source give for “GGGACCGAAAAAGACCUGACUUCUAUACUAAGUCUACGUUCCC [A9g]” here?
A: Its Kd is 5 nM.

Q: What about the binding signal (% of input internalized) ([2]; <1% in PSMA- cells) of the same sequence?
A: Its binding signal (% of input internalized) is 13.

Q: With “GGGACCGAAAAAGACCUGGCUUCUAUACUAAGUCUACGUUCCC [A9g.6]” as the sequence, how does the binding signal (% of input internalized) [2] read?
A: Its binding signal (% of input internalized) is less than 0.5.

Q: For “GGGAGGACGAUGCGGUCCUGUCGUCUGUUCGUCCCCAGACGACUCGCCCGA [E1]”, which Kd (HER2 (rat) (rat)) is on record?
A: The Kd was 60.8 nM.

Q: Which Kd (TrkB (mouse) (mouse)) does the source give for “GGGAGGACGAUGCGGUCGUAUUAUCCGCUGCACGCCAGACGACUCGCCCGA [C4-3]” here?
A: Its Kd is 2 nM.
